From the supplement of paper PMC6757056
± gives the standard deviation of the averaged measurements.

B1: library; a variant is named by its letters at N, in order (parent)
chain: GCUGUCACCGGUGCUUGGUACGUUAUAUUCAGCCGGUCUGAUGAGUCUNNNNNNAGACGAAACAGC

Experiments:
(6R,S)-folinic acid [1] = variants of: B1; test: normalized RNA/DNA level without ligand (relative to sTRSVctl = 100) (log10 (% of sTRSVctl)); HEK293T overexpressing SLC46A1; higher = less ribozyme self-cleavage, higher mRNA level; conditions: without (6R,S)-folinic acid; ligand present: no
How it was run: (§1)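 Library plasmids encoding reporter-linked ribozyme switches (mCherry, or eGFP for some folinic acid experiments) were transfected into HEK293T at 4 µg per 6-well well. Ligand, when used, was added 1 h before transfection. Total RNA was extracted with EDTA 72 h later, then reverse-transcribed, amplified, barcoded and sequenced. RNA level was RNA reads over DNA reads, divided by a spiked-in non-cleaving control (or the top 25 sequences), ×100, log10; only sequences with ≥100 DNA reads were kept.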

(6R,S)-folinic acid [2] = variants of: B1; test: normalized RNA/DNA level with ligand (relative to sTRSVctl = 100) (log10 (% of sTRSVctl)); HEK293T overexpressing SLC46A1; ligand concentration (+) RNA-Seq: 6 mM; higher = less ribozyme self-cleavage, higher mRNA level; conditions: with (6R,S)-folinic acid; ligand present: yes
How it was run: as §1

Variant | normalized RNA/DNA level without ligand (log10) ((6R,S)-folinic acid [1]) | normalized RNA/DNA level with ligand (log10) ((6R,S)-folinic acid [2])
CUUUGC | 2.047 ± 0.017 | 2.027 ± 0.016
CUUGUA | 2.027 ± 0.018 | 2.036 ± 0.013
CUUGUU | 2.02 ± 0.03 | 1.995 ± 0.018
CUUGUC | 2.091 ± 0.018 | 2.06 ± 0.027
UUUGAC | 2.012 ± 0.0044 | 2.011 ± 0.018
CUUCUG | 2.06 ± 0.021 | 2.026 ± 0.0091
CUUCUU | 2.016 ± 0.0066 | 1.97 ± 0.025
CUUCUA | 2.0515 ± 0.00054 | 2.083 ± 0.015
CUUCUC | 2.05 ± 0.0097 | 2.02 ± 0.056
GUUGUC | 2.02 ± 0.025 | 2.021 ± 0.019
GUUGUU | 2.03 ± 0.021 | 2.035 ± 0.018
UUUCGU | 1.98 ± 0.017 | 2.01 ± 0.012
UUUCGG | 1.9984 ± 0.00042 | 1.99 ± 0.022
GUUCGU | 1.998 ± 0.019 | 2.01 ± 0.035
UUUUCU | 2.012 ± 0.011 | 2.01 ± 0.038
UUUUCC | 2.02 ± 0.022 | 2 ± 0.032
UUUUCA | 2.018 ± 0.011 | 2.02 ± 0.041
UUUUCG | 1.87 ± 0.018 | 1.998 ± 0.0083
CUUCGU | 2.053 ± 0.0097 | 2.04 ± 0.048
CUUCGG | 2.063 ± 0.0068 | 2.036 ± 0.0089

Variant | normalized RNA/DNA level without ligand (log10) ((6R,S)-folinic acid [1]) | normalized RNA/DNA level with ligand (log10) ((6R,S)-folinic acid [2])
CUUUUA | 1.988 ± 0.012 | 2 ± 0.052
CUUUUG | 2.0401 ± 0.001 | 2.04 ± 0.029
GUUUUG | 2.007 ± 0.0091 | 2.02 ± 0.049
GUUUUU | 2.015 ± 0.0093 | 2 ± 0.02
GUUUGC | 1.951 ± 0.018 | 2.02 ± 0.067
GUUUGA | 2.013 ± 0.0046 | 2.05 ± 0.034
GUUUGG | 1.985 ± 0.015 | 2.03 ± 0.044
UUUGGU | 1.953 ± 0.013 | 1.98 ± 0.071
UUUGGC | 1.995 ± 0.0079 | 2.04 ± 0.027
AUUCUG | 1.94 ± 0.011 | 1.99 ± 0.043
AUUCUA | 2.005 ± 0.0047 | 1.999 ± 0.01
AUUCUC | 2.072 ± 0.012 | 2.04 ± 0.042
AUUCUU | 2.02 ± 0.027 | 2.04 ± 0.023
UUUCUC | 2.118 ± 0.0058 | 2.062 ± 0.014
UUUCUA | 2.019 ± 0.011 | 2.042 ± 0.0037
UUUCUU | 2.043 ± 0.0064 | 2.02 ± 0.021
CUUGCA | 2.019 ± 0.0087 | 2.03 ± 0.043
CUUGCC | 2.03 ± 0.0023 | 2 ± 0.064
CUUGCU | 2.051 ± 0.0067 | 2.04 ± 0.012
CUUGCG | 2.03 ± 0.017 | 2.01 ± 0.029

Variant | normalized RNA/DNA level without ligand (log10) ((6R,S)-folinic acid [1]) | normalized RNA/DNA level with ligand (log10) ((6R,S)-folinic acid [2])
UUUGUU | 1.944 ± 0.0033 | 1.99 ± 0.032
UUUGUA | 1.959 ± 0.0085 | 2.007 ± 0.014
UUUGUG | 1.73 ± 0.051 | 1.95 ± 0.046
UUUGUC | 2.069 ± 0.018 | 2.034 ± 0.02
AUUGGU | 1.884 ± 0.011 | 1.99 ± 0.056
AUUGGG | 1.7701 ± 0.00019 | 1.99 ± 0.033
AUUGGC | 2.011 ± 0.012 | 2.05 ± 0.012
GUUUCG | 1.99 ± 0.027 | 1.99 ± 0.039
GUUUCU | 1.965 ± 0.012 | 1.97 ± 0.068
GUUUCA | 2.03 ± 0.034 | 1.99 ± 0.04
GUUUCC | 2.021 ± 0.015 | 2 ± 0.068
UUUGCC | 2.001 ± 0.004 | 2.04 ± 0.037
UUUUAA | 1.973 ± 0.018 | 2.03 ± 0.02
UUUUAU | 2.007 ± 0.016 | 2.02 ± 0.023
CUUGAA | 1.958 ± 0.01 | 1.99 ± 0.049
CUUGAC | 1.998 ± 0.0057 | 2.033 ± 0.0045
AUUGCC | 2.02 ± 0.029 | 2.02 ± 0.055
AUUGCA | 1.976 ± 0.0096 | 1.98 ± 0.05
AUUGCU | 2.015 ± 0.0026 | 1.979 ± 0.012
GUUGAU | 1.97 ± 0.021 | 2.003 ± 0.019
